Test results reported in patent US20220356229A1.

B1: Antibody 389 (antibody, V domains shown)
VH: QVQLVESGGGVVQPGRSLRLSCAASGFTFSSYAMHWVRQAPGKGLEWVAVISYDGSNKYYADSVKGRFTISRDNSKNTLYLQMNSLRAEDTAVYYCASQGRMYVRGVDYGVYWGQGTLVTVSS
VL: NFMLTQPHSVSESPGKTVTISCTGSSGSIASNYVQWYQQRPGSAPTTVIYEDNQRPSGVPDRFSGSIDSSSNSASLTISGLKTEDEADYYCQSYDSSKISHAVFGGGTQLTVL
B2: Antibody 390 (antibody, V domains shown)
VH: EVQLVESGGGLIQPGGSLRLSCAASGFTVSSNYMSWVRQAPGKGLEWVSIIYSGGSTYYADSVKGRFTISRDNSKNTLYLQMNSLRAEDSAVYSCATTMVRGLIISYYYGMDVWGQGTTVTVSS
VL: QSALTQPASVSGSPGQSITISCTGTSSDVGGYNYVSWYQQHPGKAPKLMIYEVSNRPSGVSNRFSGSKSGNTASLTISGLQAEDEADYYCSSYTSSSTLVFGGGTKLTVL
B3: Antibody 413 (antibody, V domains shown)
VH: EVQLVESGGGLIQPGGSLRLSCAASGFTVSGNYMNWVRQAPGKGLEWVSVIYSGGSTYYADSVKGRFTISRANSKNTLYLQMNSLRAEDTAVYYCASTSLVRGLIILYYYGMDVWGQGTTVTVSS
VL: QSALTQPASVSGSPGQSITISCTGTSSDVGGYNYVSWYQQHPGKAPKLMIYEVSNRPSGVSNRFSGSKSGNTASLTISGLQAEDEADYYCSSYTSSSTLVFGGGTKLTVL
B4: anti-SARS-CoV-2 antibody 493 (antibody, V domains shown)
VH: EVQLVESGGGLIQPGRSLRLSCAASGFTVSITYMSWVRQAPGKGLEWVSLIYSGGSSYYADSVKGRFTISRDNSKNTLYLQMNSLRAEDTAVYYCATTMVRGVIISYYYGMDVWGQGTTVTVSS
VL: QSALTQPASVSGSPGQSITISCTGTSSDVGGYNYVSWYQQHPGKAPKLMIYEVSNRPSGVSNRFSGSKSGNTASLTISGLQAEDEADYYCSSYTSSSTLVFGGGTKLTVL

Legend:
[1] = biological target: SARS-CoV-2 Spike (S) protein, wild type, full length, expressed on the surface of transiently transfected CHO cells (SARS-CoV-2), P0DTC2; conditions: remark: other sources report otherwise
[2] = biological target: SARS-CoV-2 Spike (S) protein, wild type (SARS-CoV-2), P0DTC2; assay: HT-SPR Carterra LSA; mAb coupled to chip, Spike in solution; 1:1 Langmuir fit; conditions: remark: other sources report otherwise

| Binder | MFI fold over isotype control (fold over isotype) [1] | kon [2] [M⁻¹ s⁻¹] |
| --- | --- | --- |
| B1 | 0.72 |  |
| B2 | 0.73 |  |
| B3 | 1.11 |  |
| B4 |  | 75000 |
